Experimental data as given in patent US20060178308A1.

B1: human Factor I (protein)
chain: KVTYTSQEDLVEKKCLAKKYTHLSCDKVFCQPWQRCIEGTCVCKLPYQCPKNGTAVCATNRRSFPTYCQQKSLECLHPGTKFLNNGTCTAEGKFSVSLKHGNTDSEGIVEVKLVDQDKTMFICKSSWSMREANVACLDLGFQQGADTQRRFKLSDLSINSTECLHVHCRGLETSLAECTFTKRRTMGYQDFADVVCYTQKADSPMDDFFQCVNGKYISQMKACDGINDCGDQSDELCCKACQGKGFHCKSGVCIPSQYQCNGEVDCITGEDEVGCAGFASVTQEETEILTADMDAERRRIKSLLPKLSCGVKNRMHIRRKRIVGGKRAQLGDLPWQVAIKDASGITCGGIYIGGCWILTAAHCLRASKTHRYQIWTTVVDWIHPDLKRIVIEYVDRIIFHENYNAGTYQNDIALIEMKKDGNKKDCELPRSIPACVPWSPYLFQPNDTCIVSGWGREKDNERVFSLQWGEVKLISNCSKFYGNRFYEKEMECAGTYDGSIDACKGDSGGPLVCMDANNVTYVWGVVSWGENCGKPEFPGVYTKVANYFDWISYHVGRPFISQYNV
B2: rat Factor I (protein)
chain: KNTPASGQPQEDLVEQKCLLKNYTHHSCDKVFCQPWQKCIEGTCACKLPYQCPKAGTPVCATNGRGYPTYCHLKSFECLHPEIKFSNNGTCTAEEKFNVSLIYGSTDTEGIVQVKLVDQDEKMFICKNSWSTVEANVACFDLGFPLGVRDIQGRFNIPVNHKINSTECLHVRCQGVETSLAECTFTKKSSKAPHGLAGVVCYTQDADFPTSQSFQCVNGKRIPQEKACDGVNDCGDQSDELCCKGCRGQAFLCKSGVCIPNQRKCNGEVDCITGEDESGCEEDKKNKIHKGLARSDQGGETEIETEETEMLTPDMDTERKRIKSLLPKLSCGVKRNTHIRRKRVVGGKPAEMGDYPWQVAIKDGDRITCGGIYIGGCWILTAAHCVRPSRYRNYQVWTSLLDWLKPNSQLAVQGVSRVVVHEKYNGATYQNDIALVEMKKHPGKKECELINSVPACVPWSPYLFQPNDRCIISGWGREKDNQKVYSLRWGEVDLIGNCSRFYPGRYYEKEMQCAGTSDGSIDACKGDSGGPLVCKDVNNVTYVWGIVSWGENCGKPEFPGVYTRVASYFDWISYYVGRPLVSQYNV

How the values were obtained:
[1] = target: T1, recombinant human FHp43, P08603
T1 chain: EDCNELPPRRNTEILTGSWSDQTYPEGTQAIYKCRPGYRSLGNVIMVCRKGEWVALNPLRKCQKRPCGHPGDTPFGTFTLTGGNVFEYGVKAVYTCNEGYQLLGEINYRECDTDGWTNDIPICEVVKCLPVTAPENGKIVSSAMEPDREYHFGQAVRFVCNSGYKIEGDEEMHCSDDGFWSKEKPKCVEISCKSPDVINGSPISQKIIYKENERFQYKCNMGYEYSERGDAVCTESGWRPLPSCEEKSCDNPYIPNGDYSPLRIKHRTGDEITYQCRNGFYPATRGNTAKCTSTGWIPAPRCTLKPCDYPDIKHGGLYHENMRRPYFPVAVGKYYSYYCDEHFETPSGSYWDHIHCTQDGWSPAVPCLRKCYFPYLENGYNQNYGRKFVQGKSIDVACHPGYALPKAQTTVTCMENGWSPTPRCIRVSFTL

[2] = target: T2, truncated recombinant rat factor H protein SCR1-7
T2 chain: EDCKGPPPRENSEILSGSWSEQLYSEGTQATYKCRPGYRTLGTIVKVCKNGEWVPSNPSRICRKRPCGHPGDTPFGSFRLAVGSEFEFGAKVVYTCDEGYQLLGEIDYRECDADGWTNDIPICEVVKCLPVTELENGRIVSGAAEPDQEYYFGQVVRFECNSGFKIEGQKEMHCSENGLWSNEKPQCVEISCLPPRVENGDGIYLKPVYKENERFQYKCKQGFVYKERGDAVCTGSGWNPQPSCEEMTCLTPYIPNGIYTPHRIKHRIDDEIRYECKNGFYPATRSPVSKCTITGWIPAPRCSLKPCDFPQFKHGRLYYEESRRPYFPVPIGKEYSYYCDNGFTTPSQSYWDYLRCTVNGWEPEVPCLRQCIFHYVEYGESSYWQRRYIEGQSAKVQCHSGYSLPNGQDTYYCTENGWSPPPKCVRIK

Row | Protein | cofactor activity (43 kDa a' cleavage band of the C3b alpha-chain, SDS-PAGE/autoradiography); concentration of FHp43 in the assay [1] | cofactor activity (43 kDa a' cleavage band of the C3b alpha-chain, SDS-PAGE/autoradiography); concentration of rat FHSCR1-7 in the assay [2]
1 | B1 | exhibit cofactor activity even at low concentrations (10 mM) when incubated with C3b and factor I of the corresponding species | 
2 | B2 |  | exhibit cofactor activity even at low concentrations (10 mM) when incubated with C3b and factor I of the corresponding species
